From the DeepSol protein solubility set

Assay: soluble on expression in E. coli; label from the status in PepcDB or PDB records

Sequence | soluble on expression in E. coli
VQRPWLAPLPGAPMNACRLLLCFPYGGGGASAFNDLSRLADVGVATWAVKLPGREDRSMEAPVTRVANVIEAIVDALQSVGIPYAFYGHSFGAGLALDVAHALAERDRPLPTHLVLSGRMPPHTGYSPLLGAMDDNQLWQHVCSESLLPLPTDASCSFARHALGKLKADLALNAQLTYRFIRPLPVPLYVLNGQDDPLLELHRLDEWQRYTSTSFHSEYVPGGHFFFNINFQLLYLPLLTALD | not soluble
MSLNKEQRRITAEELQAHFEESTLSVQMIAEKLNVTTEDVEKVLAMTAPLGIFSHQLQRFIHLVWDVRDVINDNIKGNGQTPEPYTYLKGEKEDYWFLR | not soluble
MGSDKIHHHHHHMRVAIIGMGTAGVSVLRELVKHPKFNQLDIDLYDDKVNMGQGVPFQNDSSELLINMPSKKMSLNLDDETEFWKWYKQQTDFNFDEPAYLPRFVFGHYMKSYLSMFTKKYPNISTNYNKVQEIYTNSNIDETNLTYYICTTNSEQSWQAYDYVFLTCGTFAYHDPYNLKGKKGYIATPYPTYNTLDEVNELDDIAIIGTGLASLDVVRYVAAHHPKLPITMTSRSAHLPSVRGTMIDVTFKYLTKDKLNDIKKHHFGNAPLDTLVSLFLKECAEYDIDFKKLVYRRTGNHIADLKYDLARPTEMGIFQSMIEHLKENLNWIWNSLSIEDQHQFNQKYSKMIQLNSNPMPPRTAELIIELIENKSLILKKDLEDVKHDGKLYYFSYKNQESVDIYNVVINATGAKSHLNELDQDDQLIKNLENRQIVQAHPMGGIQIIPETNQVISPRFGTLTNMIAIGQMTNGVNKLRNGVKMIVEQVAHKVSQLYDALESNEQQQRSDNQ | not soluble
MSLTNKHPSLFSPFMLTEKIKLRNRIVMAPMTTWSANPDGTISEQELEFYKRRSQNVGLVITGCTYVTPSGIGFTHEFAAYDDRFINSLEKLAAAAKSGGAPAILQIFHAGNKAIPELVPNNDVISASASSVKSGDFMKRVVQSREMTENEIQETIRAFGDVTKRAIKAGFDGIELHGAHGFLLQNFFSPLFNQRNDRWGGDLEGRMRFPLAVLQEVKNVVYEYATKPFAIGYRISPEESATGGLRIEDTYKLLDRLISSGISYIHTSLVSINDSYPVESPNGPRTIELILNHIAGRVPVIAAGKIRTPSQAQEAISTGLPLVAIGKGLVINPEWVTLAESGRGHEIQTTLNPQLVPELTIPDKLWDQIQASKGEGHHHHHH | soluble
MTWLTKDGRFAVYEDPFVTKLMNTIGSMTFDGLGFTLLELYRDLVISADNYFMNYVNYGETPHDVGEESIEDPIYGASYPYWWTDLGPTLVLMLYRDYVFTSNREILEKNYNKIKEIIDWLIRKDMDNDCIPDSKGGYDNSYDGTHMYGASSYIASMFLSALTAFIKMSEILDVKIDDKYYRFLECGKKTFNSLWNGKYFILWKKNDEENTSCLNSQLLGQFWCDILGLPPITDHDKINTALRSIYELNFKASKYCLTNAVREDGSVDSSTAQLRSCWPRVSFAVAAHMILRGMVKEGIEVAKREWETIKELNPFDQSSRIDAIDGKYVGLMSYIGSTSVWLLKLALDKIRLEHHHHHH | not soluble
MGEYYHATVNGVVEYGAFVDLSEHVSGLIHESTYSGDPDLAVDDDVIVHLSAVRDNGDLSFEFVDPEEYRTEQRSHAYERTTADAVGLEHHHHHH | soluble
MLTEDDIKEIRENREMIEQGRREPVTLYIKGVSEKDPITGEEIQGEPRKENVQLVWKKFTSVEKTKFADLDVKKGEALVTFPLNVDLENIEKIERKGVFYVIELIDERGLGGVNRREVIVKRVI | not soluble
MKLPISTISPIHYIKSVVSSRETRSESNKSRRTFANTEWNKIIRETLYLETIYIPLDATSHSPDIIFQLQSPVEPKVLTVGVACKGRWKSEGIGWSDIIDEAKKFLDPLYDQVLSSAMDYHHCMLIIVSTKLSLNVSNELGN | not soluble
MGSDKIHHHHHHMSLPKYVEQLLKEKSNVRVFSFKYDGKSYWLKQTEKLSFIWRFLKSNPAEMLKSEIIRLQELNKKSAPVPKLVLFGDNFFVTEDVGSSANTWVENEDLSIELRNKVLFDCAQALASLHKQNITHGRPALRDMIWCEEKVIFVDFECTSSSNNIDWQKIRDGLVFIHSLGRSSTVSDEQIALTVTHYRQYCDADIWQKTADFIYKYRWAYYVLRIFKPVARMDLIAIYRLFEAILKNQETL | not soluble
MSLKQPAVFFDKNVSTIEENNSLLDGQTDVPVLDPHDLLVEVQAVSVNPVDTKLRQTGVASKIKILGYDAFGIVKNTGKDVTRFHAGDRVYYAGTTQRPGSNEKFQAVDERLVGRAPEKLNKSEIAAMPLTSITAYEILVDQLGLRFQNHAADGKNMLVINGAGGVGSVLLQMAAYLGINLSVTAHSSESIEWLKKYSVDKIYDYENIDETLADQKFDYIVFLYDPALYWDIAIKHIKPYGQLVSIVGTNKPLNMGPLKNIAVQFKWEYMFAKSDFNHNILSQGQALDKIAILLDAGILKTTLNKTFDLINAENLRQAYKLVESGRMQGKVVLNGPFDKALKEGHHHHHH | soluble
MSLTKKELRKEQTNRFIESTIITTDLLLSSYLYDSTKMEEFLSFIANLDNKYSFINMYLVRTQFPGASIVKSYSSWKKENIQVRKNEKGISIFRPKVIEYVVYNNTKVTKDKWTNEIKELVKNNELEVYTYTKGFTLAKVFDISQTTLPKAQYPKQYFSYFIKEDNENINPNTKLLSLLCNFIAKHNIGITYATMGLSTSEQRFYDKNSHGIKHWIRLNDKNSITQNIYSLVKEYAHTLLGHDISAINNIENRYQAQLVAYAICKSFRLKGIELSSFDAFRSWVNTSTKEMRKKWINSVIFASKQFANDFNYFLDEIEINVDKANLRETASINELMGREGHHHHHH | soluble
MSDANPVFADYFKSWYGTYKIPGKSRTTVVRYETIYKKLNAYYGKAKLAKVTRKSYQIFMNEYGKKHAKDTVYKTNGSIRSCVRDGVADGIIQKDFTQKINLTWNLEHHHHHH | not soluble
MGHHHHHHGGHMSLIDLHIHSNYSDGQGSVEEIARRAKERGLKAIAIVDHSIELPFGLTEKKARMREIEIENAASLYGIKIYSGIECSINAAGEIVLPDFDFDFIIASVHEFVYGQAYYERVIRCLESHDVDVLGHPFSPLFGFDGRLAEMDEKLLDVVEERGVAVELNSSHKSPQDEFLQLCRDRKIAYSIGSDAHSLSGVGEVGWSVEKAKRYMAGAKLFTPEGGS | soluble
MKITHCKLKKEVQKEPLRSFVPEVTARSAADILGIHPDSAALFYRKIRTVANHRLALAADGVFEGPAGPGGSYFGGRRKGRRGRGAAGKAVVFGIPKRNGRAYTVAADNAEPETLPPAVKKKIMPDGIVYADSPGSRGKLDAGGFTRCRINRSKEFADRRNHINGIGDFWNQAKRALRKYNGIDRKPFPPFLRECEFRLNFGTPSRQLKILRDRCGILEHHHHHH | not soluble
NATNRRDTVLAAMVDAGKLTKSQAKEAASIGMKNRLADTYAGKINDYRYPSYFDAVVNEAIDTYGISEKDIVNNGY | not soluble
MLPDPPRDPFNNLDPAQTVRVLPRHLAGPGQADLETIWAFPFDDGWHLHQGLEGMVFAISPCARLWTRFAPKPEERGADTWTIGMDRAPFGPRAWEITFDATTPAELLRDVHTELLDLYLEDRHSEKNHLVEDPTAPHEVYTPLLTHGWSHSVKTDGTQTFLPPEGLGGVRHRYATTGSDGPVWRAWGGYPSAPHWQAQFSAGAPTTLAAAFTASLISTEPLHRAVKQIPFHTRRHLYVAPAAAPQPPSHLPPAPPSAPHPAGRARLEHHHHHH | soluble
PLESCVRLHSSSGTTGNPTVMLYTQNDLDNWSKLMARCMSLSGANRHDIFQNIMGYGLFTGGIGFHYGAERLGMLTIPIGPGNSKRQGWFMKHLGVSVVHILPSYAFRLYSHLKEEGVDPKELPLRIAFIGAEPHSEAMRREIERLYGIKAFNSFGLSEMNGPGVAFECQEQSGMHLW | not soluble
MIVDMRLRPPIPGFARSTLYQAGPKTSHPDFPVEPSVGQCSLPLLISEMDAAGVAVGVVPGRYSMEPFGIVSNDELATLFADHPGRFVGFMGLDLGWPMQRMLDEIDARVGTPGFRGVALEPTISADASFCGMNDKRLYPIYEACVKHGVPVSVTLSAVLQAFTKRPYEHSNPVQAYQVAIDFPGLDIVIAHAAYPWVMEMIGVCLTCPNVWLSPDLYLTNVFPGAQEYAKAAATYLPRRTLFGTGYPAKPFKPMIDAYAAWGWPQDVVAAILGGNAARLLRLADQLEHHHHHH | not soluble
MTSSIKSDAPQFLLDLDNCSSLPPTPPKTASPGNSKMKGFNISDLCLDLDSSTSSSCSVSPASSFHTRSESVGQQQSGRNSPVSSSTESPTKRPKYSYNALIAMAIQSSPFKSLRVSEIYKYISSNFSYYKNQKPLQWQNSVRHNLSLHKEFRKVRTLDGKGSYWAMTADLGTDVYISNNCGKLRRQKSKVAKFPPMQQHFPIPQLPTQNIHQLCMQNPQILATLLQNMYLQNMQNLQNIPMVPGFPIIPVPINPTSFHFPKSS | not soluble
ARDTLFVNLTDATDSQSLKLSDFGNTVRYVPLETNEVCLIGNNPHIALLEDKIVIATKDQCFLFHKQTGKYICSIGHIGDDPSGYSSTNYWIDDAGLFYFFRAPDQLLKYNQKGEMTGKIQIPHIPAAPDFFAFSDSTIIAHCNSSIGLESSNSLLFLNSFGEKLDSIPNLLKSPSIPSPDNISSLSIIKRGAGFFGNLGRRGVMIIKDKEQGELLLPLYNPSLWSSENEVRFRETFTDTIYTIKNRKLYPYMVFHTDTDHSSANPLWYSNPQSIYVAYVLENTHSVFFQYVKNKQVYNGLYNKETQQTKFAKCQQFIVDDLTSEQELKVDLSALCSYKGEYGFILEAASIPDASQKQSDNKNENIPHWMSQLDEDANPVIAIVSDK | soluble
ATRMAPVIMVPGSSASQNRFDSLITELGKETPKKHSVLKLTVQTDGTIKYSGSIAANDNEPFIVIGFANNRDGKANIDKQAVWLNTAFKALVKTYHFNHFYALGHSNGGLIWTLFLERYLKESPKVHIDRLMTIASPYNMESTSTTAKTSMFKELYRYRTGLPESLTVYSIAGTENYTSDGTVPYNSVNYGKYIFQDQVKHFTEITVTGANTAHSDLPQNKQIVSLIRQYLLAETMPDKVRQKNAQRVQN | soluble
MFPIGEQPRILKDLAGINEDVQELAISGKTKNIELLGELKIRDLWIFTVNQTQFDKIMEYVNPEILYIDEMRVENLSKLQKMSNLRRLYLGWNPKNTDLWDLSYNNNLSYLLIQAFSKLEDLSPIKDGKKLEGLFLGGAIMKTLNVKTLDPIGDLVELNELTLMNIKVQDRSLEPLMNLKRLKKLNVSNQFPMEEYAKLSVVLQNTECEFFKPYVRMESTEGKDIMMIGRKRPFLNSKIDAEKIRKYEQEFKTVQEEFRDGMK | not soluble
MGSDKIHHHHHHMSTPIPSLADAPPVLCVHGIGKTYAEPVLADVSLELRAGEVLALTGENGAGKSTLSKIVGGLVTPTTGSMTLGGAAYAPASRKDAEALGVRMVMQELNLLPTLSVAENLFLNRLPRNLVGWIDRARLRENARHAMAQVGLDAIDPDTLVGTLGIGHQQMVEIARNLIGDCRVLILDEPTAMLTAREVDLLFEQVERLKAHGVALVYISHRLEELKRIARRAAVLRDGRLVHVDEMANLSTDRLVTLMVGRDIGDRIDLGERRIGEVAFKVSGMTREPVVRDVSFEVRAGEIFGISGLIGAGRTELMRLIYGADHADAGSVSLGRGGAAPEPVTIASPSDAVQHGIALITEDRKGEGLLLTQPIAANISLGHLRAVSNKGVVDGRREAALARRQIDAMRIRSAGPSQPVSELSGGNQQKVVIGRWLARDCTVLLFDEPTRGIDVGAKFDIYALMGALAREGRALVVVSSDLRELMAICDRIGVMSAGRMTGLFERGNWTQDALLAAAFAGYAKRDDLLHEPIEPDAKAPDESKLVEY | not soluble
